{"source": "paper doi:10.1101/2025.02.20.639385", "target": "MBP-RAB23T22N (Chlamydomonas reinhardtii)", "test": "SEC"}
{"substance": "RAB18S22N (bacterially expressed, 6×His-tag removed) (natural protein)", "values": [{"measurement": "stoichiometry N", "result": 1}]}
